# Read-outs that look alike come from different tables or passages of the source. Where a SMILES comes first, the peptide text is derived from it. Where no end group is shown, it is not given here.
# T1: Peptide 1 (SEQ ID NO:7), Ac-KKLAVINHV
# T1 chain: KKLAVINHV
# T2: Peptide 21e (SEQ ID NO:19), GISTKSIPPISYRDSL
# T2 chain: GISTKSIPPISYRDSL
# T3: Peptide 21j (SEQ ID NO:24), GISTKSIPPISYRNGL
# T3 chain: GISTKSIPPISYRNGL
# T4: Peptide 5 (SEQ ID NO:10), GFGGIKA
# T4 chain: GFGGIKA
# T5: Peptide 7 (SEQ ID NO:11), Ac-KKLAVINGF
# T5 chain: KKLAVINGF
# T6: Peptide 21a (SEQ ID NO:15), GISTKSIPPISYRDGL
# T6 chain: GISTKSIPPISYRDGL
# How the values were obtained:
# A431 cells = experiment: MTT cell viability assay, A431; assay type: cell-based
# Experimental: (§7) Cytotoxicity study of 12. […] Cells were treated either with phosphate buffer (as negative control) 11 or 12 for 72 h and then subjected to microscopy analysis after washing 3 times with PBS; C) IC50 of MCF-7 and A 431 cells. Cells were both treated with 12 for 84 h and then MTT based viability test was performed to acquire the optical absorbance value to allow calculating the corresponding IC50.
# (§8) Cell viability assay. MTT assays were carried out following recommended protocols from Sigma-Aldrich (Cat. No. 11465001001). Cells were first seeded in a 96-well tissue culture plate with 100 μl medium to grow until the confluency reached 40-60% of the plates surface. Peptides and proteins were added and incubated for 84 h, followed by adding 10 μl of MTT I to each well and further incubated for approximately 4 h. After this, MTT II was added and incubated at 37° C. for overnight to solubilize the purple crystals. Spectrophotometrical absorbance measurement of the samples was carried out by using a microplate reader (Biotek, citation 5) at the wavelength of 575 nm and the reference wavelength was 670 nm.
# (§9) An MTT assay was performed to determine whether 12 had any effects on the two cell lines, the EGFR-overexpressing A431 cells and the MCF-7 cells which have a low EGFR expression level [54]. Both cell lines were treated with 12 for 84 h and then subjected to MTT analysis.
# (§10) Next, MTT assay was conducted to determine the IC50.
# (§11) Bright Field Microscopy analysis and MTT assay were performed to determine the inhibitory effects of 48 on MCF-7 and A431 cell lines. […] Next, MTT assay was performed to determine the IC50.
# MCF-7 cells [1] = experiment: MTT cell viability assay, MCF-7; assay type: cell-based
# Experimental: as §7, §8, §9, §10, §11
# [2] = tested on: EGFR-overexpressing A431 cells; experiment: Fluorescence microscopy cell binding/staining, A431; assay type: cell-based; details: A431, 30-min treatment
# Experimental: Imaging and binding study of 12 on EGFR-overexpressing A431 cells.
# A) Fluorescent microscopy analysis of MCF-7 cells after treatment with 20, DOX and blank at room temperature for 30 min. B) Fluorescent microscopy analysis of A431 cells after treatment with 20, DOX and blank at room temperature for 30 min. For cell staining experiments in A) and B), nucleus was stained with 700 nM of DAPI; 10 μM DOX and 2 μM 20 were used respectively. Scal bar=50 μm. […] Microscopy analysis of cells treated with 20. […] Scal bar=100 μm.
# Confocal analysis of MCF-7 and A431 cells treated with affibody 48. Fluorescent microscopy analysis of MCF-7 and A431 cells after treatment with blank, Dox, 47 and 48 for 30 min. […]
# MCF-7 and A431 cells cultured in 24 well plates were washed with PBS for 3 times. […] After this, the cells were washed with PBS for 3 times and subjected to imaging analysis using Inverted Fluorescence Microscope (Olympus Life Science #IX71). […] Likewise, “Red” channel (Filter Cube: 550 nm) was used to obtain the doxorubicin fluorescence and “Green” channel (Filter Cube: 450 nm) for fluorescein.
# To study the activities of the dually labeled product 12, its binding towards EGFR-overexpressing A431 cells was analyzed.
# The intrinsic fluorescence of doxorubicin serves as an imaging tool to visualize the binding of 20 to the cells (FIG. 8A, 8B). […]
# MCF-7 cells [3] = experiment: Fluorescence microscopy cell binding/staining, MCF-7; assay type: cell-based; details: MCF-7, 30-min treatment
# Experimental: A) Fluorescent microscopy analysis of MCF-7 cells after treatment with 20, DOX and blank at room temperature for 30 min. […] For cell staining experiments in A) and B), nucleus was stained with 700 nM of DAPI; 10 μM DOX and 2 μM 20 were used respectively. […] Microscopy analysis of cells treated with 20.
# Confocal analysis of MCF-7 and A431 cells treated with affibody 48. Fluorescent microscopy analysis of MCF-7 and A431 cells after treatment with blank, Dox, 47 and 48 for 30 min. For cell staining experiments, cells were fixed with 4% formaldehyde and permeabilized with 0.2% tritonX-100. The cell nucleus was stained with 1 μM of DAPI. Dox and protein 47, 48 diluted in PBS were all added in 10 μM. All the staining experiments were performed for 30 min at room temperature; Scale bar=50 μm.
# Peptides or proteins in complete medium were applied to the cells and incubated for 30 min at 37° C. Washing was done 3 times with PBS and cells were subsequently subjected to microscopy analysis.
# Cell staining and imaging. MCF-7 and A431 cells cultured in 24 well plates were washed with PBS for 3 times. […] After this, the cells were washed with PBS for 3 times and subjected to imaging analysis using Inverted Fluorescence Microscope (Olympus Life Science #IX71). […] Likewise, “Red” channel (Filter Cube: 550 nm) was used to obtain the doxorubicin fluorescence and “Green” channel (Filter Cube: 450 nm) for fluorescein. […]
# Water solubility = assay type: physicochemical
# VyPAL2 = experiment: VyPAL2-catalyzed peptide cyclization (substrate screen, pH scan, kinetics); assay type: biochemical, Viola yedoensis
# Experimental: (§1) FIG. 9. Screening of P1′-Asp peptides for cyclization by A) VyPAL2, B) butelase-1 and C) OaAEP1b. Quantitative summary of reaction yields of the reaction mixtures. For each reaction, 25 nM of the enzyme and 5 μM of the peptide substrate (21a-21i) were mixed and reacted at pH 4.5, 25° C. for 60 min. The positive control peptide 21j was performed at the same conditions except at pH 7.4. Average yields and SDs were calculated from experiments performed in triplicate. The amino acid sequence of the peptides used are set forth in SEQ ID Nos. 15-24.
# (§2) FIG. 10. Ligation activity of three different ligases under different pH and substrate. Cyclization activity of A) VyPAL2, B) Butelase-1 or C) OaAEP1b towards substrate 21e-DSL and 21j-NGL; Fold difference was calculated using the cyclization rate of 21j-NGL divided by that of 21e-DSL. All the results were the average reaction rate at different pH in triplicate experiments based on MALDI-TOF analysis. Light grey text in the “Fold difference” axis marks to the maximum fold difference.
# (§3) FIG. 11. Enzymatic activity of three different ligases on the cyclization reaction of P1-Asp peptide 21e-DSL or 21a-DGL and P1-Asn-peptide 21j-NGL. A) Scheme of PAL-mediated P1-Asp peptide cyclization; B) Enzymatic kinetics of VyPAL2 in cyclizing 21e-DSL at pH 4.5; C) Enzymatic kinetics of VyPAL2 in cyclizing 21e-DSL at pH 7.0; D) Enzymatic kinetics of OaAEP1b in cyclizing 21a-DGL at pH 5.5; E) Enzymatic kinetics of Butelase-1 in cyclizing 21e-DSL at pH 4.5. F) Scheme of PAL-mediated cyclization of peptide 21j-NGL; G). Enzymatic kinetics of butelase-1 in cyclizing […] at pH 4.5; H)
# (§4) Enzymatic kinetics of VyPAL2 in cyclizing 21j-NSL at pH 4.5; I) Enzymatic kinetics of butelase-1 in cyclizing 21j-NSL at pH 7.4; J) Enzymatic kinetics of OaAEP1b in cyclizing 21j-NSL at pH 7.0. Sequences of peptides used are set forth in SEQ ID Nos. 15, 19, 24.
# (§5) PALs recognize a tripeptide motif Asx-P1′-P2′ in the acyl donor substrate for their catalyzed ligation reactions. Because the formation of the acyl-enzyme thioester intermediate is the rate-limiting step, the leaving group P1′-P2′ also plays an important role in determining the catalytic kinetics of a particular 40 PAL-mediated reaction. Previous studies have determined Leu as a preferred P2′ residue. To identify the most favorable P1′ residues for PAL-catalyzed Asp-ligation, a panel of peptides (peptide 21a-21j) with C-terminal DXL and N-terminal GI motifs was synthesized and cyclization reactions performed. Peptide 21j with a C-terminal NGL, a P1-Asn peptide favored by VyPAL2, was used for comparison with the P1-Asp peptides 21a-21i. […] Meanwhile, the P1′ substrate specificities of the two other ligases - Butelase-1 and OaAEP1b - were also evaluated by using the same substrates 21a-21j.
# scanning experiment using the two peptides 21e and 21j was performed. Cyclization reactions were conducted by mixing 5 μM of peptide 21e or 50 μM of 21j with 25 nM of VyPAL2 over a pH range of 4.0 to 7.4. Results confirmed that the optimum pH for the cyclization of the P1-Asn peptide 21j was 6.5-7.4. But for the P1-Asp peptide 21e (which has the C-terminal DSL tripeptide), the optimum pH was 4.0-4.5.
# It is worth noting that, at pH 7.4, VyPAL2 processed peptide 21j for cyclization at a rate that is >1000 folds faster than processing peptide 21e (FIG. 10). This enormous difference of reactivity essentially established the orthogonality for ligation at Asn in the presence of aspartyl bonds.
# butelase-1 = experiment: Butelase-1-catalyzed peptide cyclization (substrate screen, pH scan, kinetics); assay type: biochemical; details: for Km / kcat: Butelase-1, cyclization
# Experimental: as §1, §2, §3, §4, §5
# (§6) A pH scan experiment with the other two ligases: butelase-1 and OaAEP1 b, for their cyclase activity on 21e and 21j was also conducted. […] In fact, the difference in reaction efficiency between 21j and 21e was about 950 times at pH 7.4 (FIG. 10). […] This makes VyPAL2 a more efficient ligase than butelase-1 for Asp-mediated protein modification.
# OaAEP1b = experiment: OaAEP1b-catalyzed peptide cyclization (substrate screen, pH scan, kinetics); assay type: biochemical; details: for Km / kcat: cyclization
# Experimental: as §1, §2, §3, §4, §5, §6
# It seems that the microenvironment within the 51 pocket of OaAEP1 b has a unique ability to maintain the γCOOH of P1-Asp in the protonated form. However, for OaAEP1b-catalyzed cyclization, the difference in reactivity between 21j and 21e at pH 4.0-7.4 was not very high. The biggest difference was 9.5 folds at pH 7.4. […]
# [4] = target: T1, Peptide 1 (SEQ ID NO:7), Ac-KKLAVINHV
# [5] = target: T2, Peptide 21e (SEQ ID NO:19), …
# [6] = target: T3, Peptide 21j (SEQ ID NO:24), …
# [7] = target: T4, Peptide 5 (SEQ ID NO:10), GFGGIKA
# [8] = target: T5, Peptide 7 (SEQ ID NO:11), Ac-KKLAVINGF
# [9] = target: T6, Peptide 21a (SEQ ID NO:15), …
# Chain of butelase-1 (as listed by the source): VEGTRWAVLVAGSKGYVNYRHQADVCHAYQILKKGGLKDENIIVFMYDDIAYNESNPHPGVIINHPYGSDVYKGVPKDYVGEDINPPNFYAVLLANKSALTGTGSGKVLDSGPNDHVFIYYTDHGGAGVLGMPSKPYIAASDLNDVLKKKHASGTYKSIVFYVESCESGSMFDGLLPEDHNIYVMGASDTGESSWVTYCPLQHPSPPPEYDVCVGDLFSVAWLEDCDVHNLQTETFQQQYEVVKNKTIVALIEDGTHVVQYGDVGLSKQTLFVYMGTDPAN
molecule,measurement,setting,value
CC[C@H](C)[C@H](NC(=O)CN)C(=O)NCC(=O)NCC(=O)N[C@@H](Cc1ccccc1)C(=O)N[C@@H](CCCCN)C(=O)NCC(=O)NCC(=O)N[C@H](CCCCN)C(=O)N[C@H](CC(C)C)C(=O)N[C@H](C)C(=O)N[C@H](CCCCN)C(=O)N[C@H](CC(C)C)C(=O)N[C@H](C)C(=O)N[C@H](CCCCN)C(=O)N[C@H](CCCCN)C(=O)N[C@H](CC(C)C)C(=O)N[C@H](C)C(=O)N[C@H](CCCCN)C(=O)N[C@H](CC(C)C)C(=O)N[C@H](C)C(=O)N[C@H](CCCCN)C(N)=O [Peptide 11] (HELM PEPTIDE1{G.I.G.G.F.K.G.G.[dK].[dL].[dA].[dK].[dL].[dA].[dK].[dK].[dL].[dA].[dK].[dL].[dA].[dK].[am]}$$$$V2.0; N-terminus assumed),IC50,A431 cells; 84 h,~1300 µM
same,IC50,MCF-7 cells [1]; 84 h,~480 µM
"COc1cccc2c1C(=O)c1c(O)c3c(c(O)c1C2=O)C[C@@](O)(C(=O)CO)C[C@@H]3O[C@H]1C[C@H](N)[C@H](O)[C@H](C)O1 [Dox, doxorubicin]",cell staining (confocal),[2]; 10 μM,stained
same,cell staining,"[2]; 2 μM 20, 10 μM DOX",stained
same,cell staining (confocal),MCF-7 cells [3]; 10 μM,stained
same,cell staining,"MCF-7 cells [3]; 2 μM 20, 10 μM DOX",stained
same,IC50,"A431 cells; Homo sapiens, A-431, A431, 36 h, MTT, read-out: IC50",1.3 ± 0.04 µM
same,IC50,"A431 cells; Homo sapiens, A-431, A431, 96 h, MTT, read-out: IC50",1.22 ± 0.15 µM
same,IC50,"MCF-7 cells [1]; Homo sapiens, MCF7, MCF-7, 36 h, MTT, read-out: IC50",1 ± 0.02 µM
same,IC50,"MCF-7 cells [1]; Homo sapiens, MCF7, MCF-7, 96 h, MTT, read-out: IC50",1.6 ± 0.23 µM
same,water solubility,Water solubility,poorly soluble in water
GISTKSIPPISYRNGL (GISTKSIPPISYRNGL-NH2) [Peptide 21j],optimum pH for cyclization,"VyPAL2; 25 nM VyPAL2, pH range 4.0 to 7.4, 5 μM 21e or 50 μM 21j",6.5-7.4
same,Km,"VyPAL2; VyPAL2, cyclization, pH 4.5",28.4 ± 4.1 µM
same,kcat,"VyPAL2; VyPAL2, cyclization, pH 4.5",1.9 ± 0.18 s⁻¹
same,Km,"VyPAL2; VyPAL2, cyclization, pH 7.4",25.8 ± 1.7 µM
same,Vmax,"VyPAL2; VyPAL2, cyclization, pH 7.4",5.633 µM/min
same,kcat,"VyPAL2; VyPAL2, cyclization, pH 7.4",5.5 ± 0.4 s⁻¹
same,"fold difference, cyclization rate of 21j versus 21e","VyPAL2; VyPAL2, pH 7.4",> 1000 folds
same,Km,butelase-1; pH 4.5,12.7 ± 2.1 µM
same,kcat,butelase-1; pH 4.5,0.6 ± 0.05 s⁻¹
same,Km,butelase-1; pH 7.4,13.5 ± 1.5 µM
same,kcat,butelase-1; pH 7.4,9.4 ± 0.3 s⁻¹
same,difference in reaction efficiency between 21j and 21e,"butelase-1; butelase-1, pH 7.4",about 950 times
same,Km,OaAEP1b; pH 7.0,25.3 ± 2.5 µM
same,kcat,OaAEP1b; pH 7.0,5.5 ± 0.3 s⁻¹
same,difference in reactivity between 21j and 21e (biggest),OaAEP1b; pH 7.4,9.5 folds
GISTKSIPPISYRDGL (GISTKSIPPISYRDGL-NH2) [Peptide 21a],Km,OaAEP1b; pH 5.5,35.1 ± 5.9 µM
same,kcat,OaAEP1b; pH 5.5,5.9 ± 0.7 s⁻¹
"VyPAL2 (asparaginyl ligase, active form, SEQ ID NO:1) (protein) DSIGTRWAVLIAGSKGYHNYRHQADVCHMYQILRKGGVKDENIIVFMYDDIAYNESNPFPGIIINKPGGENVYKGVPKDYTGEDINNVNFLAAILGNKSAIIGGSGKVLDTSPNDHIFIYYADHGAPGKIGMPSKPYLYADDLVDTLKQKAATGTYKSMVFYVEACNAGSMFEGLLPEGTNIYAMAASNSTEGSWITYCPGTPDFPPEFDVCLGDLWSITFLEDCDAHNLRTETVHQQFELVKKKIAYASTVSQYGDIPISKDSLSVYM","Km, intermolecular ligation of peptide 1 (varied) with nucleophile peptide 2",[4],182 µM
same,"kcat, intermolecular ligation of peptide 1 (varied) with nucleophile peptide 2",[4],0.17 S^-1
same,"kcat/Km, intermolecular ligation of peptide 1 (varied) with nucleophile peptide 2",[4],932 M^-1S^-1
same,"Km, cyclization at pH 4.5",[5],25.6 µM
same,"Km, cyclization at pH 7.0",[5],42.3 µM
same,"Vmax, cyclization at pH 7.4",[5],with Vmax of 0.004 and 5.633 µM/min respectively
same,"kcat, cyclization at pH 4.5",[5],0.28 s⁻¹
same,"kcat, cyclization at pH 7.0",[5],0.021 s⁻¹
same,"kcat/Km, cyclization at pH 4.5",[5],10900 ± 195 M^-1s^-1
same,"kcat/Km, cyclization at pH 7.0",[5],752 M^-1s^-1
same,"kcat/Km, cyclization at pH 7.0 (value in running text, differs from Table 2)",[5],kcat/Km as ˜847±123 M -1 5 1
same,"Km, cyclization at pH 4.5",[6],28.4 µM
same,"Km, cyclization at pH 7.4",[6],25.8 µM
same,"Vmax, cyclization at pH 7.4",[6],with Vmax of 0.004 and 5.633 µM/min respectively
same,"kcat, cyclization at pH 4.5",[6],1.9 s⁻¹
same,"kcat, cyclization at pH 7.4",[6],5.5 s⁻¹
same,"kcat/Km, cyclization at pH 4.5",[6],67000 ± 3230 M^-1s^-1
same,"kcat/Km, cyclization at pH 7.4",[6],214000 ± 3900 M^-1s^-1
same,"Km, intermolecular ligation of GF-peptide 5 (varied) with acyl substrate peptide 4",[7],424 µM
same,"kcat, intermolecular ligation of GF-peptide 5 (varied) with acyl substrate peptide 4",[7],8.29 S^-1
same,"kcat/Km, intermolecular ligation of GF-peptide 5 (varied) with acyl substrate peptide 4",[7],19600 M^-1S^-1
same,"Km, intermolecular ligation of peptide 7 (varied) with nucleophile peptide 2",[8],155 µM
same,"kcat, intermolecular ligation of peptide 7 (varied) with nucleophile peptide 2",[8],1.1 S^-1
same,"kcat/Km, intermolecular ligation of peptide 7 (varied) with nucleophile peptide 2",[8],7220 M^-1S^-1
OaAEP1b (SEQ ID NO:44) (protein) SVGTRWAVLIAGSKGYANYRHQAGVCHAYQILKRGGLKDENIVVFMYDDIAYNESNPRPGVIINSPHGSDVYAGVPKDYTGEEVNAKNFLAAILGNKSAITGGSGKVVDSGPNDHIFIYYTDHGAAGVIGMPSKPYLYADELNDALKKKHASGTYKSLVFYLEACESGSMFEGILPEDLNIYALTSTNTTESSWAYYCPAQENPPPPEYNVCLGDLFSVAWLEDSDVQNSWYETLNQQYHHVDKRISHASHATQYGNLKLGEEGLFVYMGSNPANDNYTSLDGNALTPSSIVVNQRDAD,"Km, cyclization at pH 5.5",[9],35.1 µM
same,"kcat, cyclization at pH 5.5",[9],5.9 s⁻¹
same,"kcat/Km, cyclization at pH 5.5",[9],172000 ± 9250 M^-1s^-1
same,"Km, cyclization at pH 7.0",[6],25.3 µM
same,"kcat, cyclization at pH 7.0",[6],5.5 s⁻¹
same,"kcat/Km, cyclization at pH 7.0",[6],211000 ± 8260 M^-1s^-1
